Measurements from ChEMBL document CHEMBL5137095, “N-Benzyl Benzamide Derivatives as Selective Sub-Nanomolar Butyrylcholinesterase Inhibitors for Possible Treatment in Advanced Alzheimer's Disease” (J Med Chem, 2022).

What was measured:
[1] = compound: CCN(CC)Cc1ccccc1CNC(=O)c1cccc(NC(=O)c2ccc(F)cc2)c1; assay: Mixed type inhibition of human BChE assessed as Vmax at 1 nM using BTC as substrate by Lineweaver-Burk plot analysis
[2] = compound: CCN(CC)Cc1ccccc1CNC(=O)c1cccc(NC(=O)c2ccc(F)cc2)c1; assay: Mixed type inhibition of human BChE assessed as Vmax at 0.2 nM using BTC as substrate by Lineweaver-Burk plot analysis
[3] = compound: CCN(CC)Cc1ccccc1CNC(=O)c1cc(C)cc(NC(=O)c2ccc(F)cc2)c1; assay: Non competitive inhibition of human BChE assessed as Km at 0.12 nM using BTC as substrate by Lineweaver-Burk plot analysis
[4] = compound: CCN(CC)Cc1ccccc1CNC(=O)c1cc(C)cc(NC(=O)c2ccc(F)cc2)c1; assay: Non competitive inhibition of human BChE assessed as Vmax at 0.12 nM using BTC as substrate by Lineweaver-Burk plot analysis
[5] = compound: CCN(CC)Cc1ccccc1CNC(=O)c1cc(C)cc(NC(=O)c2ccc(F)cc2)c1; assay: Non competitive inhibition of human BChE assessed as Km at 0.1 nM using BTC as substrate by Lineweaver-Burk plot analysis
[6] = compound: CCN(CC)Cc1ccccc1CNC(=O)c1cccc(NC(=O)c2ccc(F)cc2)c1; assay: Mixed type inhibition of human BChE assessed as Vmax at 0.8 nM using BTC as substrate by Lineweaver-Burk plot analysis
[7] = compound: CCN(CC)Cc1ccccc1CNC(=O)c1cc(C)cc(NC(=O)c2ccc(F)cc2)c1; assay: Non competitive inhibition of human BChE assessed as Km at 0.15 nM using BTC as substrate by Lineweaver-Burk plot analysis
[8] = compound: CCN(CC)Cc1ccccc1CNC(=O)c1cc(C)cc(NC(=O)c2ccc(F)cc2)c1; assay: Non competitive inhibition of human BChE assessed as Vmax at 0.02 nM using BTC as substrate by Lineweaver-Burk plot analysis
[9] = compound: CCN(CC)Cc1ccccc1CNC(=O)c1cc(C)cc(NC(=O)c2ccc(F)cc2)c1; assay: Non competitive inhibition of human BChE assessed as Km at 0.02 nM using BTC as substrate by Lineweaver-Burk plot analysis
[10] = compound: CCN(CC)Cc1ccccc1CNC(=O)c1cccc(NC(=O)c2ccc(F)cc2)c1; assay: Mixed type inhibition of human BChE assessed as Vmax at 0.4 nM using BTC as substrate by Lineweaver-Burk plot analysis
[11] = compound: CCN(CC)Cc1ccccc1CNC(=O)c1cc(C)cc(NC(=O)c2ccc(F)cc2)c1; assay: Non competitive inhibition of human BChE assessed as Vmax at 0.1 nM using BTC as substrate by Lineweaver-Burk plot analysis
[12] = compound: CCN(CC)Cc1ccccc1CNC(=O)c1cccc(NC(=O)c2ccc(F)cc2)c1; assay: Mixed type inhibition of human BChE assessed as Km at 1 nM using BTC as substrate by Lineweaver-Burk plot analysis
[13] = compound: CCN(CC)Cc1ccccc1CNC(=O)c1cc(C)cc(NC(=O)c2ccc(F)cc2)c1; assay: Non competitive inhibition of human BChE assessed as Vmax at 0.15 nM using BTC as substrate by Lineweaver-Burk plot analysis
[14] = compound: CCN(CC)Cc1ccccc1CNC(=O)c1cccc(NC(=O)c2ccc(F)cc2)c1; assay: Mixed type inhibition of human BChE assessed as Km at 0.8 nM using BTC as substrate by Lineweaver-Burk plot analysis
[15] = compound: CCN(CC)Cc1ccccc1CNC(=O)c1cccc(NC(=O)c2ccc(F)cc2)c1; assay: Mixed type inhibition of human BChE assessed as Km at 0.4 nM using BTC as substrate by Lineweaver-Burk plot analysis
[16] = compound: CCN(CC)Cc1ccccc1CNC(=O)c1cccc(NC(=O)c2ccc(F)cc2)c1; assay: Mixed type inhibition of human BChE assessed as Vmax at 1.5 nM using BTC as substrate by Lineweaver-Burk plot analysis
[17] = compound: CCN(CC)Cc1ccccc1CNC(=O)c1cccc(NC(=O)c2ccc(F)cc2)c1; assay: Mixed type inhibition of human BChE assessed as Km at 0.2 nM using BTC as substrate by Lineweaver-Burk plot analysis
[18] = compound: CCN(CC)Cc1ccccc1CNC(=O)c1cccc(NC(=O)c2ccc(F)cc2)c1; assay: Mixed type inhibition of human BChE assessed as Km at 1.5 nM using BTC as substrate by Lineweaver-Burk plot analysis

B1: Cholinesterase (Homo sapiens), P06276 (protein)
chain: MHSKVTIICIRFLFWFLLLCMLIGKSHTEDDIIIATKNGKVRGMNLTVFGGTVTAFLGIPYAQPPLGRLRFKKPQSLTKWSDIWNATKYANSCCQNIDQSFPGFHGSEMWNPNTDLSEDCLYLNVWIPAPKPKNATVLIWIYGGGFQTGTSSLHVYDGKFLARVERVIVVSMNYRVGALGFLALPGNPEAPGNMGLFDQQLALQWVQKNIAAFGGNPKSVTLFGESAGAASVSLHLLSPGSHSLFTRAILQSGSFNAPWAVTSLYEARNRTLNLAKLTGCSRENETEIIKCLRNKDPQEILLNEAFVVPYGTPLSVNFGPTVDGDFLTDMPDILLELGQFKKTQILVGVNKDEGTAFLVYGAPGFSKDNNSIITRKEFQEGLKIFFPGVSEFGKESILFHYTDWVDDQRPENYREALGDVVGDYNFICPALEFTKKFSEWGNNAFFYYFEHRSSKLPWPEWMGVMHGYEIEFVFGLPLERRDNYTKAEEILSRSIVKRWANFAKYGNPNETQNNSTSWPVFKSTEQKYLTLNTESTRIMTKLRAQQCRFWTSFFPKVLEMTGNIDEAEWEWKAGFHRWNNYMMDWKNQFNDYTSKKESCVGL
Protein B1 has a Vmax [1] of 0.61 s⁻¹, a Vmax [2] of 0.7 s⁻¹ and a Km [3] of 201 s⁻¹. The Vmax [4] was 0.19 s⁻¹, the Km [5] was 204 s⁻¹ and the Vmax [6] was 0.63 s⁻¹. For the same protein, the Km [7] was 201 s⁻¹, the Vmax [8] was 0.38 s⁻¹ and the Km [9] was 205 s⁻¹. For the same protein, the Vmax [10] was 0.86 s⁻¹, the Vmax [11] was 0.24 s⁻¹ and the Km [12] was 684 s⁻¹. For the same protein, the Vmax [13] was 0.15 s⁻¹, the Km [14] was 621 s⁻¹ and the Km [15] was 558 s⁻¹. It also gave a Vmax [16] of 0.48 s⁻¹, a Km [17] of 511 s⁻¹ and a Km [18] of 707 s⁻¹.
